Source: IntAct's records for PubMed 18046461

B1: Mitogen-activated protein kinase 8 (Rattus norvegicus (Rat)), P49185 (parent)
chain: MSRSKRDNNFYSVEIADSTFTVLKRYQNLKPIGSGAQGIVCAAYDAILERNVAIKKLSRPFQNQTHAKRAYRELVLMKCVNHKNIIGLLNVFTPQKSLEEFQDVYIVMELMDANLCQVIQMELDHERMSYLLYQMLCGIKHLHSAGIIHRDLKPSNIVVKSDCTLKILDFGLARTAGTSFMMTPYVVTRYYRAPEVILGMGYKENVDLWSVGCIMGEMVCLKILFPGRDYIDQWNKVIEQLGTPCPEFMKKLQPTVRTYVENRPKYAGYSFEKLFPDVLFPADSEHNKLKASQARDLLSKMLVIDASKRISVDEALQHPYINVWYDPSEAEAPPPKIPDKQLDEREHTIEEWKELIYKEVMDLEERTKNGVIRGQPSPLGAAVINGSQHPVSSPSVNDMSSMSTDPTLASD
B2: Mitogen-activated protein kinase 8 (Rattus norvegicus (Rat)), P49185 (parent)
chain: B1 chain
partner: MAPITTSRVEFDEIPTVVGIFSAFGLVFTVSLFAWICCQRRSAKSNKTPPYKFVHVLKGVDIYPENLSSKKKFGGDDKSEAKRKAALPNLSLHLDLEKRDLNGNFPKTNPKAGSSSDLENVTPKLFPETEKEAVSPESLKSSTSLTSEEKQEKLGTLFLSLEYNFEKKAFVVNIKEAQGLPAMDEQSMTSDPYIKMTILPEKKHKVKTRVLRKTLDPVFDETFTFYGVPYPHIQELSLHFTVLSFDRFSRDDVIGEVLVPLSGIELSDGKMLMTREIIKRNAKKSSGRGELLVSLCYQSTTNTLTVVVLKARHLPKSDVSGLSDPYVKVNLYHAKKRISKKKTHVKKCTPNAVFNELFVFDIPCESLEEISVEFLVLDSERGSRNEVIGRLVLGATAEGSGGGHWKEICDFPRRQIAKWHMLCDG

Key:
jun_rat Jun, P17325 [1] = variants of: B1; settings: with jun_rat Jun
jun_rat Jun, P17325 [2] = variants of: B1; settings: with jun_rat Jun; remark: listed apart in the source
syt4_rat Syt4, P50232 [3] = variants of: B2; settings: with syt4_rat Syt4, P50232
syt4_rat Syt4, P50232 [4] = variants of: B2; settings: with syt4_rat Syt4, P50232; remark: listed apart in the source
syt4_rat Syt4, P50232 [5] = variants of: B2; settings: with syt4_rat Syt4, P50232; remark: listed apart in the source

Variant | effect of a mutation on the interaction (jun_rat Jun, P17325 [1]) | effect of a mutation on the interaction (jun_rat Jun, P17325 [2]) | effect of a mutation on the interaction (syt4_rat Syt4, P50232 [3]) | effect of a mutation on the interaction (syt4_rat Syt4, P50232 [4]) | effect of a mutation on the interaction (syt4_rat Syt4, P50232 [5])
D326N | disrupting interaction | decreasing interaction |  |  | 
D162T | disrupting interaction |  |  |  | 
D162T |  |  | disrupting interaction |  | decreasing interaction

Continued, values first:

effect of a mutation on the interaction (jun_rat Jun, P17325 [1]) | effect of a mutation on the interaction (jun_rat Jun, P17325 [2]) | effect of a mutation on the interaction (syt4_rat Syt4, P50232 [3]) | effect of a mutation on the interaction (syt4_rat Syt4, P50232 [4]) | effect of a mutation on the interaction (syt4_rat Syt4, P50232 [5]) | Variant
disrupting interaction | decreasing interaction |  |  |  | E329N
disrupting interaction | decreasing interaction |  |  |  | E331N
 |  | disrupting interaction | decreasing interaction |  | E331N
 |  | disrupting interaction | decreasing interaction |  | D326N
 |  | disrupting interaction | decreasing interaction |  | E329N
